Laboratory results published in US20260159603A1.

Molecular target: huCD5-BTN (human) (UniProt P06127)
Experiment: BLI in tandem, huCD5-BTN saturated with UCHT2 first; competitor UCHT2

Chain of huCD5-BTN (human) (P06127 25-372 limits assumed): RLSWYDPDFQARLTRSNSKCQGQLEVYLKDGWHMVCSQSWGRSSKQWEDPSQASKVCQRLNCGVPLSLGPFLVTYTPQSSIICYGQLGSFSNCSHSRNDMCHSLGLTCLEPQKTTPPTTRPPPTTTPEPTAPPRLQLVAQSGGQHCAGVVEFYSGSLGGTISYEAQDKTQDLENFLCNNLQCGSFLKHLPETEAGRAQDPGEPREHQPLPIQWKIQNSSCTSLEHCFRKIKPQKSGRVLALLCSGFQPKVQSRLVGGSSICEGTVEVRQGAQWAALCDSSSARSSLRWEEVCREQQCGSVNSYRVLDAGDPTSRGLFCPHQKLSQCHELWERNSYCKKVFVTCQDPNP

response (Response Units): 0
Substance: UCHT2 (antibody)
